Results on 94 variants are retold here after the supplement of paper PMC10567573.

B1: ZNF449 (parent)
chain: HKKKSPGEKPHRCPQCGKCFARKS
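Also: lentivirally expressed fusions sorted by FACS into six bins by GFP to DsRed ratio, PSI derived from sequencing read proportions per bin multiplied by bin number.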

Variants of B1 are the subject of this data set. Nature of the data set: protein stability index of a GFP-peptide fusion (GPS, HEK-293T) (PSI 1-6); higher = more stable. The note with it: c terminus: a fixed tail appended.
Take HKKKSPGEKDHRCPQCGKCFARKS: the protein stability index is 3.74.
The figure for HKKKSPGEKSHRCPQCGKCFARKS is 3.86; for HKKKSPGEKRHRCPQCGKCFARKS it is 3.31.
The same measure for HKKKSPGEKCHRCPQCGKCFARKS: 2.56; for HKKKSPGEKEHRCPQCGKCFARKS: 3.52; for HKKKSPGEKLHRCPQCGKCFARKS: 4.06.
For the variant HKKKSPGEKAHRCPQCGKCFARKS, the protein stability index is 4.54.
The figure for HKKKSPGEKTHRCPQCGKCFARKS is 3.83; for HKKKSPGEKMHRCPQCGKCFARKS it is 4.07.
The figure for HKKKSPGEKKHRCPQCGKCFARKS is 4.63; for HKKKSPGEKNHRCPQCGKCFARKS it is 3.3.
The figure for HKKKSPGEKVHRCPQCGKCFARKS is 3.65; for HKKKSPGEKFHRCPQCGKCFARKS it is 3.15.
For HKKKSPGEKQHRCPQCGKCFARKS, the protein stability index stood at 3.09.
The figure for HKKKSPGEKIHRCPQCGKCFARKS is 3.58; for HKKKFPGEKPHRCPQCGKCFARKS it is 3.4; for HKKKAPGEKPHRCPQCGKCFARKS it is 4.1.
In the case of HKKKPPGEKPHRCPQCGKCFARKS, the protein stability index stood at 2.71.
The figure for HKKKVPGEKPHRCPQCGKCFARKS is 2.77.
On to HKKKEPGEKPHRCPQCGKCFARKS, for which the protein stability index came out at 3.7.
For HKKKNPGEKPHRCPQCGKCFARKS, the protein stability index stood at 3.88.
The figure for HKKKYPGEKPHRCPQCGKCFARKS is 3.55; for HKKKMPGEKPHRCPQCGKCFARKS it is 3.18; for HKKKLPGEKPHRCPQCGKCFARKS it is 3.23.
The figure for HKKKIPGEKPHRCPQCGKCFARKS is 3.26.
Turning to HKKKHPGEKPHRCPQCGKCFARKS, the protein stability index was found to be 3.32.
Take HKKKQPGEKPHRCPQCGKCFARKS: the protein stability index came to 3.84.
Turning to HKKPSPGEKPHRCPQCGKCFARKS, the protein stability index worked out at 3.72.
In the case of HKKGSPGEKPHRCPQCGKCFARKS, the protein stability index came out at 3.13.
The figure for HKKTSPGEKPHRCPQCGKCFARKS is 3.89; for HKKQSPGEKPHRCPQCGKCFARKS it is 2.84.
Consider HKKASPGEKPHRCPQCGKCFARKS, for which the protein stability index was 2.87.
With HKKVSPGEKPHRCPQCGKCFARKS, the protein stability index came to 3.66.
The figure for HKKHSPGEKPHRCPQCGKCFARKS is 3.41; for HKKMSPGEKPHRCPQCGKCFARKS it is 3.37.
The figure for HKKLSPGEKPHRCPQCGKCFARKS is 4.2; for HKKCSPGEKPHRCPQCGKCFARKS it is 3.75.
The figure for HKKWSPGEKPHRCPQCGKCFARKS is 2.98.
For HKKSSPGEKPHRCPQCGKCFARKS, the protein stability index was determined as 3.14.
The figure for HKKFSPGEKPHRCPQCGKCFARKS is 3.52; for HKKYSPGEKPHRCPQCGKCFARKS it is 2.33; for HKKRSPGEKPHRCPQCGKCFARKS it is 4.01.
The same measure for HKKKSPGEFPHRCPQCGKCFARKS: 3.38.
The same measure for HKKKSPGEHPHRCPQCGKCFARKS: 2.57; for HKKKSPGERPHRCPQCGKCFARKS: 3.94; for HKKKSPGELPHRCPQCGKCFARKS: 2.42.
Take HKKKSPGEMPHRCPQCGKCFARKS: the protein stability index amounted to 4.23.
The figure for HKKKSPGENPHRCPQCGKCFARKS is 4.35; for HKKKSPGEYPHRCPQCGKCFARKS it is 3.75.
The figure for HKKKSPGEWPHRCPQCGKCFARKS is 3.66; for HKKKSGGEKPHRCPQCGKCFARKS it is 4.52.
The figure for HKKKSDGEKPHRCPQCGKCFARKS is 2.73.
For the variant HKKKSFGEKPHRCPQCGKCFARKS, the protein stability index was found to be 3.36.
The same measure for HKKKSWGEKPHRCPQCGKCFARKS: 3.05; for HKKKSVGEKPHRCPQCGKCFARKS: 2.98; for HKKKSQGEKPHRCPQCGKCFARKS: 3.57.
The figure for HKKKSRGEKPHRCPQCGKCFARKS is 3.51.
Consider HKKKSKGEKPHRCPQCGKCFARKS, for which the protein stability index was 3.39.
The same measure for HKKKSNGEKPHRCPQCGKCFARKS: 3.44; for HKKKSEGEKPHRCPQCGKCFARKS: 3.4; for HKKKSTGEKPHRCPQCGKCFARKS: 4.38.
Take HKKKSIGEKPHRCPQCGKCFARKS: the protein stability index was determined as 3.19.
The figure for HKKKSYGEKPHRCPQCGKCFARKS is 3.94; for HKKKSPGEKPWRCPQCGKCFARKS it is 3.54.
The same measure for HKKKSPGEKPYRCPQCGKCFARKS: 3.02.
The same measure for HKKKSPGEKPKRCPQCGKCFARKS: 3.28; for HKKKSPGEKPGRCPQCGKCFARKS: 3.57; for HKKKSPGEKPMRCPQCGKCFARKS: 3.18.
For HKKKSPGEKPRRCPQCGKCFARKS, the protein stability index was found to be 3.08.
The figure for HKKKSPGEKPERCPQCGKCFARKS is 4.17.
The same measure for HKKKSPGEKPTRCPQCGKCFARKS: 3.49.
The figure for HKKKSPGEKPARCPQCGKCFARKS is 3.42.
With HKKKSPGEKPDRCPQCGKCFARKS, the protein stability index stood at 3.21.
The same measure for HKKKSPGEKPCRCPQCGKCFARKS: 4.53; for HKKKSPGEKPLRCPQCGKCFARKS: 3.19; for HKKKSPGEKPNRCPQCGKCFARKS: 3.41.
The figure for HKKKSPGWKPHRCPQCGKCFARKS is 3.36; for HKKKSPGYKPHRCPQCGKCFARKS it is 3.9; for HKKKSPGVKPHRCPQCGKCFARKS it is 3.79.
On to HKKKSPGNKPHRCPQCGKCFARKS, for which the protein stability index was 2.75.
The same measure for HKKKSPGCKPHRCPQCGKCFARKS: 3.64; for HKKKSPGHKPHRCPQCGKCFARKS: 3.92; for HKKKSPGQKPHRCPQCGKCFARKS: 2.99.
For the variant HKKKSPGFKPHRCPQCGKCFARKS, the protein stability index amounted to 3.14.
On to HKKKSPGKKPHRCPQCGKCFARKS, for which the protein stability index is 3.57.
The same measure for HKKKSPGLKPHRCPQCGKCFARKS: 3.01; for HKKKSPGAKPHRCPQCGKCFARKS: 3.41.
Regarding HKKKSPGDKPHRCPQCGKCFARKS, the protein stability index amounted to 3.81.
As to HKKKSPGMKPHRCPQCGKCFARKS, the protein stability index amounted to 2.93.
The figure for HKKKSPGIKPHRCPQCGKCFARKS is 3.17; for HKKKSPGRKPHRCPQCGKCFARKS it is 3.99.
The figure for HKKKSPGPKPHRCPQCGKCFARKS is 3.63.
The figure for HKKKSPPEKPHRCPQCGKCFARKS is 4.25.
With HKKKSPAEKPHRCPQCGKCFARKS, the protein stability index was 3.46.
